Source: US20130011909A1, “METHODS AND COMPOSITION TO ENHANCE PRODUCTION OF FULLY FUNCTIONAL P-GLYCOPROTEIN IN PICHIA PASTORIS” (TEXAS TECH UNIVERSITY SYSTEM, priority 2011, published 2013)

What was measured:
[1] = Differential scanning calorimetry, thermal unfolding; format: physicochemical
Protocol: Calorimetry was routinely carried out in 20 mM HEPES, pH 7.6, 50 mM NaCl, 10% glycerol, 0.1% DDM and 5.5 mM DTT in 0.13 mL cells at a heating rate of 2 K/minutes with the VP-Capillary DSC System (MicroCal Inc., GE Healthcare). An external pressure of 2.0 atm was maintained to prevent possible degassing of the solutions on heating. Thermal unfolding was irreversible, as determined by sample cooling and reheating. Heat capacity curves were corrected for instrumental baseline obtained by buffer scans. Separated DSC scans were conducted for buffer containing 1% lipids and no transition was detected in the temperature range of thermal unfolding for the proteins in presence of lipids. DSC data were analyzed with the MicroCal Origin software to obtain the unfolding temperature (Tm) and the total unfolding enthalpy (ΔHcal).

[2] = system: S. cerevisiae strain JPY201; assay: Mating assay (a-factor export, diploid formation); format: cell-based; settings: sterile ste6Δ strain JPY201, tester DC17
Protocol: (§1) FK506 resistance and mating assays were as previously described with the following modifications. To measure FK506-resistant growth, overnight cultures were grown in uracil-deficient medium, diluted to an (OD600 of 0.05, seeded into sterile 96 well plates in triplicate and grown in YPD medium at 30° C. in the absence or presence of FK506, valinomycin [12, 33], or doxorubicin. OD600 was measured at 2 hour intervals for 30 hours in a microplate reader (Benchmark Plus, BioRad) after vigorous mixing. Drugs were dissolved in dimethylsulfoxide and diluted into the plate medium such that the final concentration of solvent was ≦1%. For mating assays, mass populations were diluted to OD600 of 0.6, and 0.75 ml were spotted with 0.25 ml of α-type tester strain DC17 (OD600 of 1.2) onto a 22 mm 0.45 μm HA filter (Millipore, cat no SAIJ791H5), placed on a YPD plate and incubated for 4 hours, then plated in duplicate on minimal and uracil-deficient medium as described. Mating frequency was calculated as the ratio of transformed cells forming diploid colonies on selective medium to the total number of cells introduced in the assay. Statistical analysis of the functional assays was done with the SigmaPlot 11 software using One Way ANOV A with the pairwise multiple comparison Tukey test.

[3] = system: S. cerevisiae strain JPY201; assay: Drug-resistant growth of Pgp transformants (FK506, valinomycin, doxorubicin); format: cell-based
Protocol: as §1

[4] = molecular target: T1, Opti-Pgp (Mus musculus, UniProt P21447, N83Q/N87Q/N90Q); assay: ATPase assay of purified, lipid-activated Pgp (coupled ATP-regenerating assay); format: biochemical
T1 construct: made in house; host or cells: Pichia pastoris KM71H
Protocol: (§2) Purified Pgp in 0.1% DDM was mixed with 10 mM DTT on ice for 5 min, then activated with 1% E. coli polar lipids for 15 minutes at room temperature followed by 30 s bath sonication as described. ATPase activity was measured at 37° C. in a coupled assay utilizing an ATP-regenerating system. For each well of a 96-well plate, 10 μl (5 μg) of activated wild type (WT) Pgp or Opti-Pgp was added to 200 μl of assay medium containing 10 mM ATP, 12 mM MgSO4, 3 mM phosphoenolpyruvate, 0.3 mM NADH, 0.5 mg/ml of lactate dehydrogenase, 0.5 mg/ml of pyruvate kinase, 0.1 mM EGTA and 40 mM Tris-HCl, pH 7.4. Verapamil was added from stock solution in water; cyclosporine A was added from concentrated stock in DMSO such that the final DMSO concentration was 2%; control samples contained 2% DMSO. […] ATPase activity was calculated as described previously and plotted with SigmaPlot 10 (Systat Software, Inc.).

[5] = molecular target: T2, WT-Pgp (Mus musculus, UniProt P21447, N83Q/N87Q/N90Q); assay: as above; format: biochemical; settings: 150 μM verapamil, 1% E. coli lipids, 37° C., n > 30
T2 construct: Arrows indicate the position of the full-length proteins (Pgp); made in house; host or cells: Pichia pastoris KM71H
Protocol: as §2

[6] = molecular target: gene-optimized P-glycoprotein (mouse opti-MDR3 gene product) with C-terminal His6-tag (mouse) (UniProt P21447); assay: cell-based or functional assay
[7] = molecular target: wild-type P-glycoprotein (mouse MDR3 gene product) with C-terminal His6-tag (mouse) (UniProt P21447); assay: cell-based or functional assay

T1 sequence (P21447 whole entry N83Q/N87Q/N90Q): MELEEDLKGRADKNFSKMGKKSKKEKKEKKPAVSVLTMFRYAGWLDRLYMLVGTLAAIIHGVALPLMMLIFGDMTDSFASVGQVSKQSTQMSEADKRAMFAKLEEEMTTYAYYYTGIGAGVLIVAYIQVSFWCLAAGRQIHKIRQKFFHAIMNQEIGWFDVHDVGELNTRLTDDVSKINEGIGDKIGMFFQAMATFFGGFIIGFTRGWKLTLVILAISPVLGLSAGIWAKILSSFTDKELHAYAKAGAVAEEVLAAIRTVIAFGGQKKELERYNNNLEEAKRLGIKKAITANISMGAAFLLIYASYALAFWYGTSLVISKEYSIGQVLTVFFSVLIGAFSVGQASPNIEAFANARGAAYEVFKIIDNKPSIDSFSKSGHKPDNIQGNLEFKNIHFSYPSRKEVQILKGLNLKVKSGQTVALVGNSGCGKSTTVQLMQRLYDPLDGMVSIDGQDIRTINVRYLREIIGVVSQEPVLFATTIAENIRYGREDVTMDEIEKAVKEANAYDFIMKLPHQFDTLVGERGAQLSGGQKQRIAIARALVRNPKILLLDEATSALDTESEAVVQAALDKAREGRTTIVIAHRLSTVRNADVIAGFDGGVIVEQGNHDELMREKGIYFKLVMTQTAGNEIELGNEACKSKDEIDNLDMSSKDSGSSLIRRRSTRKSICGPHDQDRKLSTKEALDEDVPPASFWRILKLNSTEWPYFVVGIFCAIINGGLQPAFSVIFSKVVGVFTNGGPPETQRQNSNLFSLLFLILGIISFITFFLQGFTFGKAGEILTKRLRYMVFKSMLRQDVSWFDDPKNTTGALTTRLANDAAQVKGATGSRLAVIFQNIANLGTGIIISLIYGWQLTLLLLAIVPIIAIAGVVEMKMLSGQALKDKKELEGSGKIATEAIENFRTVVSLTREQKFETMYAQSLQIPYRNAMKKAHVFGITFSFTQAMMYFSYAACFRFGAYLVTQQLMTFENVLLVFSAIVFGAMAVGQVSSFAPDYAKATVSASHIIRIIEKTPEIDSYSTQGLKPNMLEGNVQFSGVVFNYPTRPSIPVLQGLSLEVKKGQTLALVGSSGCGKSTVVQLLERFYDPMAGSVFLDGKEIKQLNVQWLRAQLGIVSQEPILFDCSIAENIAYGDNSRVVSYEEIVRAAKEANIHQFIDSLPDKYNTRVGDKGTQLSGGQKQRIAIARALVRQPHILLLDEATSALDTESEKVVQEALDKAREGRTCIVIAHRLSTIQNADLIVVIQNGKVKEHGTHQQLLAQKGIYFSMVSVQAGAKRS
T2 sequence (P21447 whole entry N83Q/N87Q/N90Q): as above

Opti-Pgp: P-glycoprotein (mouse MDR3) expressed from codon-optimized opti-MDR3 gene, primary sequence identical to wild-type, C-terminal His6 tag
Tm (intermediate) ([1]; 0.13% lipid): 48 °C | Unfolding temperature T1 ([1]; 1% lipid): 49.3 ± 1.0 °C | Unfolding temperature T2 ([1]; 1% lipid): 58.7 ± 0.5 °C | ΔHcal ([1]; 1% lipid): 567 ± 33 kcal/mol | Unfolding temperature T1 ([1]; no added lipids, 0.1% DDM): 42.7 ± 1.7 °C | ΔHcal ([1]; no added lipids, 0.1% DDM): 264 ± 67 kcal/mol | Mating frequency relative to WT-Pgp controls [2]: about 1.5 fold | Growth resistance compared with WT-Pgp transformants ([3]; FK506 25 μg/ml): no difference | Growth resistance compared with WT-Pgp transformants ([3]; FK506 50 or 75 μg/ml): grew significantly faster | Growth resistance compared with WT-Pgp transformants ([3]; doxorubicin 45 μM): grew significantly faster | Growth resistance compared with WT-Pgp transformants ([3]; doxorubicin 15 and 30 μM): no significant difference | Time after inoculation to enter log-phase growth ([3]; in the presence of FK506): approximately 22 hours | Time to reach stationary phase ([3]; in the presence of FK506): approximately 28 hours | Growth compared with WT-Pgp transformants ([3]; valinomycin 80 μg/ml, data not shown): as good as or better than | verapamil-stimulated ATPase activity ([4]; 0.13% lipid): 40% | verapamil-stimulated ATPase activity ([4]; 0.52% lipid): 80% | ATP hydrolysis rate enhancement over wild-type Pgp ([4]; Opti-Pgp versus WT-Pgp): 1.2 fold | verapamil-stimulated ATPase activity ([4]; absence of lipids): 11% | Maximal ATPase activity ([4]; purified Opti-Pgp, 150 μM verapamil, 1% E. coli lipids, 37° C., n > 30): 2.1 ± 0.28 µmol/min/mg | Maximum turnover number ([4]; purified Opti-Pgp, as printed in summary): 2.1 ± 0.28 µmol/min/mg

WT-Pgp: wild-type mouse MDR3 P-glycoprotein expressed from the native gene, comparison protein
Unfolding temperature T1 ([1]; 1% lipid): 50.4 ± 0.9 °C | Unfolding temperature T2 ([1]; 1% lipid): 57.8 ± 0.1 °C | ΔHcal ([1]; 1% lipid): 518 ± 4.2 kcal/mol | Unfolding temperature T1 ([1]; no added lipids, 0.1% DDM): 43.0 ± 1.6 °C | ΔHcal ([1]; no added lipids, 0.1% DDM): 264 ± 87 kcal/mol | Maximal ATPase activity [5]: 1.8 ± 0.24 µmol/min/mg

cyclosporine A (peptide)
Half-maximal inhibition by cyclosporine A (µM) of verapamil-stimulated ATPase activity [6]: 1.1 µM | Half-maximal inhibition by cyclosporine A (µM) of verapamil-stimulated ATPase activity [7]: 0.98 µM
